The numbers were not newly measured in paper PMC3563353, which cites them from elsewhere.

One may read the Ki as a measure of affinity in units of concentration, obtained from inhibition or displacement.

Sequence of MC4R (P32245 whole entry): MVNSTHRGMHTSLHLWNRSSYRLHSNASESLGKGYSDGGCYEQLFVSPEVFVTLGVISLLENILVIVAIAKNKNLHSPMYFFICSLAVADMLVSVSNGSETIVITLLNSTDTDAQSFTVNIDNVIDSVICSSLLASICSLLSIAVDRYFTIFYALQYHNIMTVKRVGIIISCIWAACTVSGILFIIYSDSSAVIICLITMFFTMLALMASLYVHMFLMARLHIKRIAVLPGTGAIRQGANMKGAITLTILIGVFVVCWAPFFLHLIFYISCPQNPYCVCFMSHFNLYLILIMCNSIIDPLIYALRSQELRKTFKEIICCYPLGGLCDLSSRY
Sequence of MC5R (P33032 whole entry): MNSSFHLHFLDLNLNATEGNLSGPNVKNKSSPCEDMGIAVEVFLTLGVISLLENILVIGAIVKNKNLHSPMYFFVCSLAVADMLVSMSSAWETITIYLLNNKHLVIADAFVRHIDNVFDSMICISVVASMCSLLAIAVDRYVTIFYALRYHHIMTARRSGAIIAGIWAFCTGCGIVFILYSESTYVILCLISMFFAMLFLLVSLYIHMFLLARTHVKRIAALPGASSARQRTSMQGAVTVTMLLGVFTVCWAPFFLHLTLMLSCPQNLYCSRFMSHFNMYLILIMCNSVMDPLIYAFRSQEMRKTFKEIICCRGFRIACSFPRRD
Sequence of MC1R (Q01726 whole entry): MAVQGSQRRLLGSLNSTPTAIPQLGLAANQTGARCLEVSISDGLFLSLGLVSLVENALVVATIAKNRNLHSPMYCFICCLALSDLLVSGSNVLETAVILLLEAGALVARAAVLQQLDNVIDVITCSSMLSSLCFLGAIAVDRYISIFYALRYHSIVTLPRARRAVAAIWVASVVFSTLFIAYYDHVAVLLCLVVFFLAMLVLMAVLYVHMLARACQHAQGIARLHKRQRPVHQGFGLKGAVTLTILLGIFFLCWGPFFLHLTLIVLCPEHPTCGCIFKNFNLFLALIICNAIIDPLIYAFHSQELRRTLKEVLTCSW

This data set concerns the target 4-phenylbutyryl-His-DPhe-Arg-Trp-Gly-Lys. Briefly: competition binding.
For MC5R (from UniProt P33032), the inhibitory constant (Ki) was 46 nM. On to MC1R (from UniProt Q01726), for which the Ki was 0.24 nM.

Turning to MC4R (from UniProt P32245), the inhibitory constant (Ki) is 254 nM.
